From paper PMC11980593

Biological target: hexahistidine-tagged VapD toxin from Campylobacter jejuni (VapD^Cje) (Campylobacter jejuni)
Test: crystal structure; co-expressed and co-purified VapD-VapW complex; sitting drop at 20°C, 20% PEG 1000, 100 mM sodium phosphate dibasic/citric acid pH 4.2, 200 mM lithium sulfate; space group C 2 2 21; 1.95 Å

“strep-tagged VapW antitoxin from Campylobacter jejuni (VapW^Cje) (natural protein)” was tested, and the stoichiometry N (VapD per VapW (2:2)) was 1.
